Molecular target: canine CD20 with C-terminal FLAG tag, expressed on A20/cCD20/luc or EL-4/cCD20/luc cells (dog) (UniProt Q3C2E2)
Assay: cell-based or functional assay

Sequence of UniProt Q3C2E2 (Q3C2E2 other isoform, or with tags, fused parts or gaps): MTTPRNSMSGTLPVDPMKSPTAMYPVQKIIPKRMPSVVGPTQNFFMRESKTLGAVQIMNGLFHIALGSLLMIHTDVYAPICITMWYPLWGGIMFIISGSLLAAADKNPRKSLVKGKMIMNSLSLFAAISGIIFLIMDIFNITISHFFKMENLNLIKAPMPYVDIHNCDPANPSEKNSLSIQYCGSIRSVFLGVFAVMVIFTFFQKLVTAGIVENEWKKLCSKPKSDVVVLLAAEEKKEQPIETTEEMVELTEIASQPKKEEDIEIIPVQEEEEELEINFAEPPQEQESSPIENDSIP

Substance: Dog IgG antibody (Jackson ImmunoResearch Laboratories, Inc.)
- cell-mediated cytotoxicity activity (lysis rate); targets A20/cCD20/luc and EL-4/cCD20/luc, effectors NK-92/cCD16γ, E/T 10:1: < 25%

Source: patent US20240102992A1
